Experiment: yeast display, Sf9 membrane polyspecificity reagent, FACS + sequencing; frameworks hold sequencing errors
How it was run: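 Nanobodies from a synthetic yeast display library (Saccharomyces cerevisiae BJ5465), induced 36–48 hours with galactose, were stained 1 hour at 4 °C with 10% biotinylated, detergent-solubilized Sf9 membrane reagent, enriched on streptavidin microbeads, then FACS-sorted. Anti-HA (expression) and streptavidin (reagent binding) fluorescence set low and high (top ~1%) gates. Polyreactivity labels come from the gate of origin. Genes were colony-PCR amplified, MiSeq 2 × 250 sequenced and filtered by CDR length.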

Sequence	polyreactivity (PSR sort gate)
QVQLVESGGGLVQAGGSLRLSCAASGITYSYNAMGWSRQAPGKERELVAAISSNSDSTYFADSVMGRFTISRDNAKNTVYLQMNSLKPEDTAVYYCAADTPDAAVYSGFYYWGQGTQVTVSS	low polyreactivity
QVQLVESGGGLVQAGGSLRLSCAASGIYAYVMGWYRQAPGTERELVAAISGTGGRTYYADSVKGRFTISRDNAKNTVYLQMNSLKPEDTAVYYCAARVKYTRYQSILDYYYWGQGTQVTVSS	high polyreactivity
QVQLVESGGGLVQAGGSLRLSCAASGIYINAMGWYRQAPGKERELVAAISRGGSTYYADSVKGRFTISRDNAKNTVYLQMNSLKPEDTAVYYCAKLIGRWRLYHTFVKGDYWGQGTQVTVSS	high polyreactivity
QVQLVESGGGLVQAGGSLRLSCAASGKPMGWYRQAPGKERELVAAITYGGTTTYYADSVKGRFTISRDNAKNTVYLQMNSQKPEDTAVYYCAADYVFVATPLRYDYWGQGTQVTVSS	low polyreactivity
QVQLVESGGGLVQAGGSLRLSCAASGKTFVTYAMGWYRQAPGKERELVATISSSGGSTYYADSVKGRFTISRDNAKNTVYLQMNSLKPEDTAVYYCAKQAWAYALYTNFYSGDYGYWGQGTQVTVSS	low polyreactivity
QVQLVESGGGLVQAGGSLRLSCAASGLFARNAMGWYRQAPGKERELVAAINRSGGSTYYADSVKGRFTISRDNAKNTVYLQMNSLKPEDTAVYYCNKAFTHTKYLSPIAYEYGYWGQGTQVTVSS	low polyreactivity
QVQLVESGGGLVQAGGSLRLSCAASGLIFADYTMGWYRQAPGKERELVAVITDGDSTYYADSVKGRFTISRDNAKNTVYLQMNSLKPEDTAVYYCAAELDGSNYTLDYWGLGTQVTVSS	low polyreactivity
QVQLVESGGGLVQAGGSLRLSCAASGLIFAGYSMGWYRLAPGKERELVAAITWRGGRTYADSVKGRFTISRDNAKNTVYLQMNSLKPEDTAVYYCAVRRWGTSFVEDDYWGQGTQVTVSS	low polyreactivity
QVQLVESGGGLVQAGGSLRLSCAASGLIFAPYAMGLYRQAPGKERELVAAISFRGGSTYYADSVKGRFTISRDNAKNTVYFQMNSLKPEDTAVYYSAADWLYDYGEYYYWGQGTQVTVSS	high polyreactivity
QVQLVESGGGLVQAGGSLRLSCAASGLIFARNALGWYRQAPGKERELVAAISWRSGRTYYADSVKGRFTISRDNAKNTVYLQMNSLKPEDTAVYYCAATSRTSWYGYWGQGTQVTVSS	high polyreactivity
QVQLVESGGGLVQAGGSLRLSCAASGLIFARNAMGWYRQSPGKERELVAAITRGGSTYYADSVKGRFTISRDNAKNTVYLQMNSLKPEDTAVYYCNADYAYNSYGYRFYYWGQGTQVTVSS	high polyreactivity
QVQLVESGGGLVQAGGSLRLSCAASGLIFAVYAMGWYRQAPGKERELVAGISASAASTYYADSVKGRFTISRDNAKNTVYLQMNSLKPEDTAVYYCVAVLPARGYYWGQGTQVTVSS	high polyreactivity
QVQLVESGGGLVQAGGSLRLSCAASGLIFDDYAMGWYRQAPGKERELVAAISWSDGTTYYADSVKGRFTISRDNAKNTVYLQMNSLKPEDTAVYYCAAEEVSGWEYDYWGQGTQVTVSS	high polyreactivity
QVQLVESGGGLVQAGGSLRLSCAASGLIFDGYAMGWYRQAPGKERELVAAISRSGSRTYYADSVKGRFTISRDNAKNTVYLQMNSLKPEDTAVYYCAADAYNYPELDYWGQGTQVTVSS	high polyreactivity
QVQLVESGGGLVQAGGSLRLSCAASGLIFDKYAMGWYRQAPGKERELVAAITRSSGTTYYADSVKGRFTISRDNAKNTVYLQMNSLKPEETAVYYCAARFIWGYWGVGSYYWGQATQVTVSS	low polyreactivity
QVQLVESGGGLVQAGGSLRLSCAASGLIFDRSAMGWYRPAPGKERELDAASRWTGASSTYYADSVKGRFTISRDNAKNTVYLQMNSLKPEDTAVYYCNADSPYSFATGPYVLDSDYWGQGTQVTVSS	low polyreactivity
QVQLVESGGGLVQAGGSLRLSCAASGLIFDVNTMGWYRQAPGKERELVAAITGSGGRTYYADSVKGRFTISRDNGKNTVYLQMNSLKPEDTAFYYCNADTSYVGFDYWGQGTQVTVSS	low polyreactivity
QVQLVESGGGLVQAGGSLRLSCAASGLIFDVYAMGWYRQAPGKERELVAVISRGGSTNYADSVKGRFTISRDNANNTVYLQMNSLKPEDTAVYYCAAGLVVSYPQNNYSVSFYARGYWGQGTQVTVSS	high polyreactivity
QVQLVESGGGLVQAGGSLRLSCAASGLIFDYYGMGWYRQAPGKEREFVAAINRSGGTTYYADSVKGRFTISRDNAKNTVYLQMNSLKPEDTAVYYCNADRGPAKLVYDPVIMDYWGQGTQVTVSS	low polyreactivity
QVQLVESGGGLVQAGGSLRLSCAASGLIFEVNVMGWYRQAPGTERELVAAITTGGGSTYYADSVKGRFTISRDNAKNTVYLQMNSLKPEDTAVYYCATDYSSYLYDYYTGVGGYEYWGQGTQVTVSS	low polyreactivity
QVQLVESGGGLVQAGGSLRLSCAASGLIFFSYAMGWYRQAPGKERELVAAISRRGGRTYYADSVKGRFTISRDNAKNTVYLQMNSLKPEDTAVYYCAADSGYVWYADDYWGQGTQVTVSS	low polyreactivity
QVQLVESGGGLVQAGGSLRLSCAASGLIFGGYAMGWYRQAPGKERELVAAISSSGGRTYYADSVKGRFTISRDNAKNTVYLQMNSLKPEDTAVYYCATRVHYRNDYWGQGTQVTVSS	high polyreactivity

Sequence	polyreactivity (PSR sort gate)
QVQLVESGGGLVQAGGSLRLSCAASGLIFGKNAMGWYRQAPGKERELVAAISSGDSTYADSVKGRFTISRDNAKNTVYLQMNSLKPEDTAVYYCNAEVLRESYDRHPTTDYYWGQGTQVTVSS	low polyreactivity
QVQLVESGGGLVQAGGSLRLSCAASGLIFGPNAMGWYRQAPGKERELVAAITKSGDSTYYADSVKGRFTISRDNAKNTVYFQMNSLKPEDTAVYYCAADTTTGLYDYWGQGTQVTVSS	low polyreactivity
QVQLVESGGGLVQAGGSLRLSCAASGLIFGPYAMGWYRQAPGKERELLAASWRGGSTYYADSVKGRFTISRDNAKNTVFLQMNSLKPEDTAVYYCAADVIYSLYYYWGQGTQVTVSS	low polyreactivity
QVQLVESGGGLVQAGGSLRLSCAASGLIFGPYAMGWYRQAPGKERELVAAITSSGGSTYYADSVKGRFTISRDNAKNTVYLQMNSLKPEDTAVYSCAARGSPRYYARYNYWGQGTQVTVSS	low polyreactivity
QVQLVESGGGLVQAGGSLRLSCAASGLIFGRNVMGWYRQAPGKERELVAAISWSGGRTYYADSVKGRFTISRDNAKNTVYLQMNSLKPEDTAVYYCAADDGPGFDYWGQGTQVTVSS	high polyreactivity
QVQLVESGGGLVQAGGSLRLSCAASGLIFGSYAMGWYRQAPGKERELVAASSRSGGSTYYADSVKGRFTISRDKAKNSVYLQMISLKPEDTAVYYFAADDYSSEYDYWGQGTQVTVSS	high polyreactivity
QVQLVESGGGLVQAGGSLRLSCAASGLIFGTKAMGCYRQAPGKERELVAAMSGSGGRTYYADSVKARFTISRDNAKNTVYLQMNSLKPEDTAVYYCASRFWRLHVGYGYSGQGTQVTVSS	high polyreactivity
QVQLVESGGGLVQAGGSLRLSCAASGLIFGTYAMGWYRQAPGKERELVATITRGGGSTYYADSVKGRFTISRDNAKNTVYLQMNSLKPEDTAVYDCAKTYFYGVRRFNYWGQGTQVTVSS	high polyreactivity
QVQLVESGGGLVQAGGSLRLSCAASGLIFGWNAMGGYRQAPGKERELVAAINSGGITNYADSVKGRFTISRDNAKNTVYLQMYSLKPDDTEVYYCAADVVQYGLDWYGEEYESWGQGTQVTVSS	low polyreactivity
QVQLVESGGGLVQAGGSLRLSCAASGLIFGWYAMGWYRQAPGKERELVAGISGSGGITYYADSVKGRFTISRDNAKNTVYLQMNSLKPEDTAVYYCNARYPRYYRGVIQYDFWGQGTQVTVSS	low polyreactivity
QVQLVESGGGLVQAGGSLRLSCAASGLIFHQYAMGWYRQAPGKERELVAAITRSGTRTYYADSVKGRFTISRDNAKNTVYLQMNSLKPEDTAVYYCAAADTQGVSMDYWGQGTQVTVSS	high polyreactivity
QVQLVESGGGLVQAGGSLRLSCAASGLIFIAYAMGWYRQATGKERELVAAISSSGGSTYYADSVKGRFTISRDNAKNTVYLQMTSLKREDTAVYYCAADRYAWGTGRYGYWGQGTQVTVSS	low polyreactivity
QVQLVESGGGLVQAGGSLRLSCAASGLIFIIYTRGWSRQAPGKERELVAAITRRGGITYYADSVKGRFTISRDNAKNTVYLQMNSLKPEDTAVYYCAVVRPYNIWYDYWGQGTQVTVSS	low polyreactivity
QVQLVESGGGLVQAGGSLRLSCAASGLIFITYAMGWYRQAPGKERELVATITLRGGSTYYADSVKGRFTISRDNAKNTVYLQMNSLKPEDTAVYYCAADVGYWGRSSGYPSDDYDYWGQGTQVTVSS	low polyreactivity
QVQLVESGGGLVQAGGSLRLSCAASGLIFIVYAMGWSRQAPGKERELVAAISWSGGSTYYADSVKGRFTISRDNAKNTVYLQMNSLKPEDTAVYYCAAPSSVRGKVISADYGYWGQGTQVTVSS	high polyreactivity
QVQLVESGGGLVQAGGSLRLSCAASGLIFKGYVMGWYRQAPGKERELVAAISRRGGSTYYADSVKGRFTISRDNAKNTVYLQMNSLKPEDTAVYYCATEVYDIDGWWGYDYWGQGTQVTVSS	high polyreactivity
QVQLVESGGGLVQAGGSLRLSCAASGLIFKKYTMGWYRQAPGKERELVASISKSGGSTYYADSVKARFTISRDNAKNTVYLQMNSLKPEDTAVYYCAVGSTDRVSAQGSYFTYDYWGQVTQVTVSS	low polyreactivity
QVQLVESGGGLVQAGGSLRLSCAASGLIFKRYAMGWYRQAPGKERELVAAISYSGGSTYYADSVKGRFTISRDNAKNTVYLQMNSLKPEDTAVYYCATVYYHRFDYWGQGTQVTVSS	high polyreactivity
QVQLVESGGGLVQAGGSLRLSCAASGLIFLAYTMGWYRLAPGKVRELVAAISYSDGSTYYADSVKARFTISRDNANNTVYVQMNSLKPEDTAVYYCAARPRPPLRSYDYWGQGTQVTVSA	low polyreactivity
QVQLVESGGGLVQAGGSLRLSCAASGLIFLQYVMGWSRQAPGKEREFVATITDDGDTTYYADSVKGRFTISRDNAKNTVYLQMNSLKPEDTAVYYCAADAEGSASKYDYWGQGTQVTVSS	low polyreactivity
QVQLVESGGGLVQAGGSLRLSCAASGLIFLVNAMGWYRQAPGKERELVAAIDRDGGITYADSVKGRFTISRDNAKNTVYLQMNSQKPEDTAVYYCAADPSSYGRFTYDYWGQGTQVTVSS	low polyreactivity

— the nanobody polyreactivity screen of Harvey et al. (2022)
